The text below walks through data of US20180305695.

This data set has as its target von Willebrand factor A1 domain (Homo sapiens) (UniProt P04275). Put plainly: SPR. Conditions: 37 C.

What is called Kd is a measure of binding affinity in units of concentration. For “CGTGACCGANGAGCACCTAACNGGTCTCAACGNTGGAGGTCACG [vWF2-DsDsDs]”, the dissociation constant Kd (n = Ds at 3 positions, likely pM (protein 0.078-5 nM)) was found to be 7.49e+07 pM. This lies in the double-digit micromolar range. Regarding “CGAGGCTCCCCANCTTTCGCCNACANCCGAGGGAGCCTCGCGCGTAGCG [vWF1-DsDsDs-mhGC]”, the Kd (n = Ds at 3 positions, phosphate buffer 155 mM NaCl, 0.05% NP-40, koff 0.00159 1/s, printed as GCmh) was found to be 780 pM. Regarding “CGAGGCTCCCCANCTTTCGCCNACANCCGAGGGAGCCTCG [vWF1-DsDsDs-GC]”, the Kd (n = Ds at 3 positions, phosphate buffer 155 mM NaCl, 0.05% NP-40) came to 1080 pM. This counts as single-digit nanomolar. Where the note is “n = Ds, likely pM (protein 0.078-5 nM)”, “CGCGGCCGANGAGCACCGAAGGTCTCAACGNTGGAGGCCGCGCGCGTAGCG [vWF2-DsDsDs-2mhGC]” registered a dissociation constant Kd of 6.13e+07 pM. This lies in the double-digit micromolar range. “TGAGACTCCCCANCTTTCGCCNACANCCGAGGGAGTCTCA [vWF1-DsDsDs]” gave an equilibrium dissociation constant (Kd) (n = Ds (7-(2-thienyl)-3H-imidazo[4,5-b]pyridin-3-yl) at 3 positions, phosphate buffer 155 mM NaCl, 0.05% NP-40) of 1030 pM.
